These results are taken from patent publication US20210139548A1 (published 2021).

*1 amine or outer side, *2 acyl side, *3 side chain or, on linkers, in order; H or OH if unused. Side-chain parts run from the residue outwards. The star is where a group is joined. C18 diacid = O=C(O)CCCCCCCCCCCCCCCCC(=O)*; γGlu = O=C(O)[C@H](CCC(=O)[*:2])N[*:1]; Isovaleryl = CC(C)CC(=O)*; AEEA = NCCOCCOCC(=O)O

T1: human neuropeptide Y2 receptor (human, UniProt P49146 1-381)
T1 construct: whole, on cells; also called hNPY2 receptor; hNPY2-R
T1 sequence (looked up): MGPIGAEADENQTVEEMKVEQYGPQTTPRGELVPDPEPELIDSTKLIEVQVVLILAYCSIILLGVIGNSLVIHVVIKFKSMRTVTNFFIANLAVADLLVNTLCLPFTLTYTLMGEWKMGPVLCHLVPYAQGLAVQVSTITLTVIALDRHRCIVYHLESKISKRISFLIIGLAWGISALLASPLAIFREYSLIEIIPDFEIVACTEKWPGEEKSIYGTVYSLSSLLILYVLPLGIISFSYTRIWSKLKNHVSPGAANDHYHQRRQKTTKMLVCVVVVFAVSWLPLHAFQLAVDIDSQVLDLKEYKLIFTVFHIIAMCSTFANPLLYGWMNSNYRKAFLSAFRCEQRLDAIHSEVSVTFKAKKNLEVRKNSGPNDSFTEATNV

B1: Compound 195 (peptide)
peptide: Isovaleryl-APEK([AEEA-AEEA-γGlu-C18 diacid])PEEDASPEALQRYYVELRHYYNWLTRQRY-NH2
SMILES: CC(C)CC(=O)N[C@@H](C)C(=O)N1CCC[C@H]1C(=O)N[C@@H](CCC(=O)O)C(=O)N[C@@H](CCCCNC(=O)COCCOCCNC(=O)COCCOCCNC(=O)CC[C@H](NC(=O)CCCCCCCCCCCCCCCCC(=O)O)C(=O)O)C(=O)N1CCC[C@H]1C(=O)N[C@@H](CCC(=O)O)C(=O)N[C@@H](CCC(=O)O)C(=O)N[C@@H](CC(=O)O)C(=O)N[C@@H](C)C(=O)N[C@@H](CO)C(=O)N1CCC[C@H]1C(=O)N[C@@H](CCC(=O)O)C(=O)N[C@@H](C)C(=O)N[C@@H](CC(C)C)C(=O)N[C@@H](CCC(N)=O)C(=O)N[C@@H](CCCNC(=N)N)C(=O)N[C@@H](Cc1ccc(O)cc1)C(=O)N[C@@H](Cc1ccc(O)cc1)C(=O)N[C@H](C(=O)N[C@@H](CCC(=O)O)C(=O)N[C@@H](CC(C)C)C(=O)N[C@@H](CCCNC(=N)N)C(=O)N[C@@H](Cc1c[nH]cn1)C(=O)N[C@@H](Cc1ccc(O)cc1)C(=O)N[C@@H](Cc1ccc(O)cc1)C(=O)N[C@@H](CC(N)=O)C(=O)N[C@@H](Cc1c[nH]c2ccccc12)C(=O)N[C@@H](CC(C)C)C(=O)N[C@H](C(=O)N[C@@H](CCCNC(=N)N)C(=O)N[C@@H](CCC(N)=O)C(=O)N[C@@H](CCCNC(=N)N)C(=O)N[C@@H](Cc1ccc(O)cc1)C(N)=O)[C@@H](C)O)C(C)C
B2: Compound 197 (peptide)
peptide: Isovaleryl-APAK([AEEA-AEEA-γGlu-C18 diacid])PEADASPEELQRYYVELRHYYNWLTRQRY-NH2
SMILES: CC(C)CC(=O)N[C@@H](C)C(=O)N1CCC[C@H]1C(=O)N[C@@H](C)C(=O)N[C@@H](CCCCNC(=O)COCCOCCNC(=O)COCCOCCNC(=O)CC[C@H](NC(=O)CCCCCCCCCCCCCCCCC(=O)O)C(=O)O)C(=O)N1CCC[C@H]1C(=O)N[C@@H](CCC(=O)O)C(=O)N[C@@H](C)C(=O)N[C@@H](CC(=O)O)C(=O)N[C@@H](C)C(=O)N[C@@H](CO)C(=O)N1CCC[C@H]1C(=O)N[C@@H](CCC(=O)O)C(=O)N[C@@H](CCC(=O)O)C(=O)N[C@@H](CC(C)C)C(=O)N[C@@H](CCC(N)=O)C(=O)N[C@@H](CCCNC(=N)N)C(=O)N[C@@H](Cc1ccc(O)cc1)C(=O)N[C@@H](Cc1ccc(O)cc1)C(=O)N[C@H](C(=O)N[C@@H](CCC(=O)O)C(=O)N[C@@H](CC(C)C)C(=O)N[C@@H](CCCNC(=N)N)C(=O)N[C@@H](Cc1c[nH]cn1)C(=O)N[C@@H](Cc1ccc(O)cc1)C(=O)N[C@@H](Cc1ccc(O)cc1)C(=O)N[C@@H](CC(N)=O)C(=O)N[C@@H](Cc1c[nH]c2ccccc12)C(=O)N[C@@H](CC(C)C)C(=O)N[C@H](C(=O)N[C@@H](CCCNC(=N)N)C(=O)N[C@@H](CCC(N)=O)C(=O)N[C@@H](CCCNC(=N)N)C(=O)N[C@@H](Cc1ccc(O)cc1)C(N)=O)[C@@H](C)O)C(C)C
B3: Compound 199 (peptide)
peptide: Isovaleryl-APEK([AEEA-AEEA-γGlu-C18 diacid])PEEDAEPEETQRYYVSLRHYYNWLTRQRY-NH2
SMILES: CC(C)CC(=O)N[C@@H](C)C(=O)N1CCC[C@H]1C(=O)N[C@@H](CCC(=O)O)C(=O)N[C@@H](CCCCNC(=O)COCCOCCNC(=O)COCCOCCNC(=O)CC[C@H](NC(=O)CCCCCCCCCCCCCCCCC(=O)O)C(=O)O)C(=O)N1CCC[C@H]1C(=O)N[C@@H](CCC(=O)O)C(=O)N[C@@H](CCC(=O)O)C(=O)N[C@@H](CC(=O)O)C(=O)N[C@@H](C)C(=O)N[C@@H](CCC(=O)O)C(=O)N1CCC[C@H]1C(=O)N[C@@H](CCC(=O)O)C(=O)N[C@@H](CCC(=O)O)C(=O)N[C@H](C(=O)N[C@@H](CCC(N)=O)C(=O)N[C@@H](CCCNC(=N)N)C(=O)N[C@@H](Cc1ccc(O)cc1)C(=O)N[C@@H](Cc1ccc(O)cc1)C(=O)N[C@H](C(=O)N[C@@H](CO)C(=O)N[C@@H](CC(C)C)C(=O)N[C@@H](CCCNC(=N)N)C(=O)N[C@@H](Cc1c[nH]cn1)C(=O)N[C@@H](Cc1ccc(O)cc1)C(=O)N[C@@H](Cc1ccc(O)cc1)C(=O)N[C@@H](CC(N)=O)C(=O)N[C@@H](Cc1c[nH]c2ccccc12)C(=O)N[C@@H](CC(C)C)C(=O)N[C@H](C(=O)N[C@@H](CCCNC(=N)N)C(=O)N[C@@H](CCC(N)=O)C(=O)N[C@@H](CCCNC(=N)N)C(=O)N[C@@H](Cc1ccc(O)cc1)C(N)=O)[C@@H](C)O)C(C)C)[C@@H](C)O
B4: Compound 196 (peptide)
peptide: Isovaleryl-APAK([AEEA-AEEA-γGlu-C18 diacid])PPEDAEPEELQRYYVSLRHYYNWLTRQRY-NH2
SMILES: CC(C)CC(=O)N[C@@H](C)C(=O)N1CCC[C@H]1C(=O)N[C@@H](C)C(=O)N[C@@H](CCCCNC(=O)COCCOCCNC(=O)COCCOCCNC(=O)CC[C@H](NC(=O)CCCCCCCCCCCCCCCCC(=O)O)C(=O)O)C(=O)N1CCC[C@H]1C(=O)N1CCC[C@H]1C(=O)N[C@@H](CCC(=O)O)C(=O)N[C@@H](CC(=O)O)C(=O)N[C@@H](C)C(=O)N[C@@H](CCC(=O)O)C(=O)N1CCC[C@H]1C(=O)N[C@@H](CCC(=O)O)C(=O)N[C@@H](CCC(=O)O)C(=O)N[C@@H](CC(C)C)C(=O)N[C@@H](CCC(N)=O)C(=O)N[C@@H](CCCNC(=N)N)C(=O)N[C@@H](Cc1ccc(O)cc1)C(=O)N[C@@H](Cc1ccc(O)cc1)C(=O)N[C@H](C(=O)N[C@@H](CO)C(=O)N[C@@H](CC(C)C)C(=O)N[C@@H](CCCNC(=N)N)C(=O)N[C@@H](Cc1c[nH]cn1)C(=O)N[C@@H](Cc1ccc(O)cc1)C(=O)N[C@@H](Cc1ccc(O)cc1)C(=O)N[C@@H](CC(N)=O)C(=O)N[C@@H](Cc1c[nH]c2ccccc12)C(=O)N[C@@H](CC(C)C)C(=O)N[C@H](C(=O)N[C@@H](CCCNC(=N)N)C(=O)N[C@@H](CCC(N)=O)C(=O)N[C@@H](CCCNC(=N)N)C(=O)N[C@@H](Cc1ccc(O)cc1)C(N)=O)[C@@H](C)O)C(C)C
B5: Compound 202 (peptide)
peptide: Isovaleryl-APEK([AEEA-AEEA-γGlu-C18 diacid])PEEDAAPEELQKYYVSLRHYYNWLTRQRY-NH2
SMILES: CC(C)CC(=O)N[C@@H](C)C(=O)N1CCC[C@H]1C(=O)N[C@@H](CCC(=O)O)C(=O)N[C@@H](CCCCNC(=O)COCCOCCNC(=O)COCCOCCNC(=O)CC[C@H](NC(=O)CCCCCCCCCCCCCCCCC(=O)O)C(=O)O)C(=O)N1CCC[C@H]1C(=O)N[C@@H](CCC(=O)O)C(=O)N[C@@H](CCC(=O)O)C(=O)N[C@@H](CC(=O)O)C(=O)N[C@@H](C)C(=O)N[C@@H](C)C(=O)N1CCC[C@H]1C(=O)N[C@@H](CCC(=O)O)C(=O)N[C@@H](CCC(=O)O)C(=O)N[C@@H](CC(C)C)C(=O)N[C@@H](CCC(N)=O)C(=O)N[C@@H](CCCCN)C(=O)N[C@@H](Cc1ccc(O)cc1)C(=O)N[C@@H](Cc1ccc(O)cc1)C(=O)N[C@H](C(=O)N[C@@H](CO)C(=O)N[C@@H](CC(C)C)C(=O)N[C@@H](CCCNC(=N)N)C(=O)N[C@@H](Cc1c[nH]cn1)C(=O)N[C@@H](Cc1ccc(O)cc1)C(=O)N[C@@H](Cc1ccc(O)cc1)C(=O)N[C@@H](CC(N)=O)C(=O)N[C@@H](Cc1c[nH]c2ccccc12)C(=O)N[C@@H](CC(C)C)C(=O)N[C@H](C(=O)N[C@@H](CCCNC(=N)N)C(=O)N[C@@H](CCC(N)=O)C(=O)N[C@@H](CCCNC(=N)N)C(=O)N[C@@H](Cc1ccc(O)cc1)C(N)=O)[C@@H](C)O)C(C)C
B6: Compound 204 (peptide)
peptide: Isovaleryl-APEK([AEEA-AEEA-γGlu-C18 diacid])PEEEASPEEVQRYYVSLRHYYNWLTRQRY-NH2
SMILES: CC(C)CC(=O)N[C@@H](C)C(=O)N1CCC[C@H]1C(=O)N[C@@H](CCC(=O)O)C(=O)N[C@@H](CCCCNC(=O)COCCOCCNC(=O)COCCOCCNC(=O)CC[C@H](NC(=O)CCCCCCCCCCCCCCCCC(=O)O)C(=O)O)C(=O)N1CCC[C@H]1C(=O)N[C@@H](CCC(=O)O)C(=O)N[C@@H](CCC(=O)O)C(=O)N[C@@H](CCC(=O)O)C(=O)N[C@@H](C)C(=O)N[C@@H](CO)C(=O)N1CCC[C@H]1C(=O)N[C@@H](CCC(=O)O)C(=O)N[C@@H](CCC(=O)O)C(=O)N[C@H](C(=O)N[C@@H](CCC(N)=O)C(=O)N[C@@H](CCCNC(=N)N)C(=O)N[C@@H](Cc1ccc(O)cc1)C(=O)N[C@@H](Cc1ccc(O)cc1)C(=O)N[C@H](C(=O)N[C@@H](CO)C(=O)N[C@@H](CC(C)C)C(=O)N[C@@H](CCCNC(=N)N)C(=O)N[C@@H](Cc1c[nH]cn1)C(=O)N[C@@H](Cc1ccc(O)cc1)C(=O)N[C@@H](Cc1ccc(O)cc1)C(=O)N[C@@H](CC(N)=O)C(=O)N[C@@H](Cc1c[nH]c2ccccc12)C(=O)N[C@@H](CC(C)C)C(=O)N[C@H](C(=O)N[C@@H](CCCNC(=N)N)C(=O)N[C@@H](CCC(N)=O)C(=O)N[C@@H](CCCNC(=N)N)C(=O)N[C@@H](Cc1ccc(O)cc1)C(N)=O)[C@@H](C)O)C(C)C)C(C)C

The test has as its target T1, human neuropeptide Y2 receptor. Nature of the test: radioligand competition (125I-PYY(1-36)), hNPY2R membranes. The method, boiled down:
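Commercial human Y2 receptor membranes (0.5 μg protein/well) were incubated with peptide for 2 h at room temperature in 50 mM HEPES, 5 mM MgCl₂, 1 mM CaCl₂, pH 7.4, with 0.2% ovalbumin. Bound radioligand was separated on PEI-soaked GF/C filters and counted by scintillation, and IC₅₀ came from nonlinear sigmoidal regression.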
(In general: Loss of bound radioactivity is the signal in a displacement assay; it reports binding, not function.)
B1 showed a Ki of 750 pM.

Molecule B2 returned a Ki of 870 pM. For B3, the Ki worked out at 5690 pM. For B4 the value was 980 pM.

As for B5, the affinity corresponds to a Ki of 600 pM.

Regarding B6, affinity was put at a Ki of 3350 pM.

By Ki is commonly meant the equilibrium dissociation constant of an inhibitor or competing ligand from its target. A low value points to a stronger hold on the target.
